Assay: soluble on expression in E. coli; label from the status in PepcDB or PDB records

Question: Which “soluble on expression in E. coli” value does the source give for “MSLALLNVDKLSVHFGDESAPFRAVDRISYSVKQGEVVGIVGESGSGKSVSSLAIMGLIDYPGRVMAEKLEFNGQDLQRISEKERRNLVGAEVAMIFQDPMTSLNPCYTVGFQIMEAIKVHQGGNKSTRRQRAIDLLNQVGIPDPASRLDVYPHQLSGGMSQRVMIAMAIACRPKLLIADEPTTALDVTIQAQIIELLLELQQKENMALVLITHDLALVAEAAHKIIVMYAGQVVETGDAHAIFHAPRHPYTQALLRALPEFAQDKERLASLPGVVPGKYDRPNGCLLNPRCPYATDRCRAEEPALNMLADGRQSKCHYPLDDAGRPTEGHHHHHH” here?
Answer: The value was “soluble”.

Question: With “RLADRMSQEGWEDPGSSSAQAAAIEHDTFGRDNDGDVILLFTAKDGIAHSPSFDKIKKYLDSLKTDHSDHVDAVTSYFDKRNAQLISKDGTTAFAAVSLRGDGEQTLKDFRAIESDLHPQFPEVTVQVAGSTAVADALDKGMSGDIKRAE” as the sequence, how does the “soluble on expression in E. coli” value read?
Answer: Its value is “not soluble”.

Question: For “MSLRILLALASLSGNTREVARVIRARCEERGHRVDWIETDLQTLAGQALDPHTYTLFLLGTWTDNAGRTPFEMKRFIVELLELIGKPPSVAVFGTGETQWGQEYYCGAVHRISDFFASRFPRLLIEQMPHGERDALAIVEWTDQVLDQCNKDSDADHYRYVAEGHHHHHH”, which “soluble on expression in E. coli” value is on record?
Answer: The value was “soluble”.

Question: Which “soluble on expression in E. coli” value does the source give for “MNNGFFNSDFDSIFRRMMKDMQGSNQVGNKKYYINGKEVSPEELAQLTQQGGNHSAEQSAQAFQQAAQRQQGQQGGNGNYLEQIGRNLTQEARDGLLDPVIGRDKEIQETAEVLSRRTKNNPILVGEAGVGKTAIVEGLAQAIVEGNVPAAIKDKEIISVDISSLEAGTQYRGAFEENIQKLIEGVKSSQNAVLFFDEIHQIIGSGATGSDSGSKGLSDILKPALSRGEISIIGATTQDEYRNNILKDAALTRRFNEVLVNEPSAKDTVEILKGIREKFEEHHQVKLPDDVLKACVDLSIQYIPQRLLPDKAIDVLDITAAHLSAQSPAVDKVETEKRISELENDKRKAVSAEEYKKADDIQNEIKSLQDKLENSNGEHTAVATVHDISDTIQRLTGIPVSQMDDNDIERLKNISNRLRSKIIGQDQAVEMVSRAIRRNRAGFDDGNRPIGSFLFVGPTGVGKTELAKQLAIDLFGNKDALIRLDMSEYSDTTAVSKMIGTTAGYVGYDDNSNTLTEKVRRNPYSVILFDEIEKANPQILTLLLQVMDDGNLTDGQGNVINFKNTIIICTSNAGFGNGNDAEEKDIMHEMKKFFRPEFLNRFNGIVEFLHLDKDALQDIVNLLLDDVQVTLDKKGITMDVSQDAKDWLIEEGYDEELGARPLRRIVEQQVRDKITDYYLDHTDVKHVDIDVEDNELVVKGK” here?
Answer: The value was “not soluble”.

Question: For “MGSDKIHHHHHHMNKHFTFTINSICLDENYHPSDKTRITTNFANLARGSHRQANLRNALKMIDNSFNALAHWDNPKGDRYSVELEIISVNLDIDGSGQTFPSIEVLKTNIVDHKTNKRIEGIVGNNFSSYVRDYDFSVLLAEHNKGQAKFSIPDDFGGLHGKLFQSFVNSDAYKQNFNKPPVICLSVSDNKTYHRIENQHPVLGVEYQPNESSLTEQYFKKMGLQVRYFMPPNSVAPLAFYFFGDLLNDYTHLELISTISTMGTFQKIYRPEIYNANAVAGKCYQPNLKNLDHSLTQIVYDRAERSQLANEQGKFAAEHFIKPYQTFFEQWPANYL”, which “soluble on expression in E. coli” value is on record?
Answer: Its value is “not soluble”.

Question: Which “soluble on expression in E. coli” value does the source give for “YLGGDLKYYGHTIKKANVQAIINYAVQYNILPSGIITQLYLESFWGDSTVGKRDNNWAGMSGGAQTRPSGVKVTTGMARPANEGGTYMHYASVDDFLKDYTYLLAKQGIYNVVGKKNIADYTKGLFRAGGAKYDYAAAGY” here?
Answer: The value was “not soluble”.

Question: For “MNDLCVDLGYKSLNKFGEQLCGDMIQVVKDDDTTILVLADGLGSGVKANILSTLTSKIISTMIAAHMGIEECVNTIMSTLPVCKVRGIAYSTFTIIKITNNTYAEIIQYDNPLVILLRNGKKYDYPTQTKIISGKKIVESKIRLNCDDVFVVMSDGAIYAGVGQTLNYGWQRENIIEFIESHYDKSLSANALTSLLIDTCNNLYANMPGDDTTIAAIKIRKRQVVNLMFGPPQNPEDVHNMMSLFFAKQGRHIVCGGTTSTLAAKFLGKELETTIDYIDPRIPPIARIEGVDLVTEGVLTISRVLEYAKDYIGKNILYNEWHSKNDGASIIARMLFEEATDINFYVGKAINPAHQNPNLPIGFNIKMQLVEELSKILKQMGKTINLSYF”, which “soluble on expression in E. coli” value is on record?
Answer: The value was “not soluble”.

Question: Which “soluble on expression in E. coli” value does the source give for “QVQLQESGPGLMKPSETLSLTCSVSGDSIRSDYWSWIRKPPGKGLEYIGYVSYSGSTYYNPSLKSRVTISVDTSKNRFSLKLNSVTAADTAVYYCARWDGDYWGQGILVTVSS” here?
Answer: Its value is “soluble”.

Question: With “SDEFVNLKETELRLGLPGTDNVCEAKERVSCCNNNNKRVLSTDTEKEIESSSRKTETSPPRKAQIVGWPPVRSYRKNNIQSKKNESEHEGQGIYVKVSMDGAPYLRKIDLSCYKGYSELLKALEVMFKFSVGEYFERDGYKGSDFVPTYEDKDGDWMLIGDVPWEMFICTCKRLRIMKGSEAKGLGCGV” as the sequence, how does the “soluble on expression in E. coli” value read?
Answer: The value was “soluble”.

Question: With “MYVDPKVTIETVKTLNTYLKTRAELRSTDHVVIAEKLDDNDKKATTRLKILTKFDEGRFGAIYMVQNESAVDNDVVSVGNSRFIMKTALRQLSSHQIVYRLSREITVLKTLWGQGNDPPPRVPPILHQGKILGVPFYVTSIFDVNLEKCREQMGGGTFCVQSAFHIAQEIFMALKFMHRRQLVHRDVKPTNIALSYQNRDQWYLIDYGDAISVGKKTPISPPDGVTLPFLSLEAHDLLVTSSYSSFQQDLESWFYVIVDLLKPLPWKDNNRIDKVALAKRDFMSRLPNNLTNLPSQILDIGQILKTESPYSEISKKLVEGLASVKTSSSEKWNPEWYDRSATRNLREKKIKNQPRSRESAEAEATAVQTTPTGSTELQNDRRDKSVYVSTIVTKVVDNRKKVSSSNSPTTVSTNKTAVIEDEEDVKKNSPIQKQQDRSVYFNDFPVAAVAQPETGKKKKYRYKMRKQ” as the sequence, how does the “soluble on expression in E. coli” value read?
Answer: Its value is “not soluble”.

Question: For “SAEKQAGLVGEPDPEGSSPGTSESWNYDSNCVFCRVAAGQEPKTELFHCENEDLVCFKDIKPAALYHYLVVPKKHIGSCKDLNKDHIEMVESMVAAGKTMLERNNFTDFTDVRMGFHVPPFCSISHLHLHVIAPVKEFGFLSKLVYRQDSYWFVTVDYLLEKLRK”, which “soluble on expression in E. coli” value is on record?
Answer: The value was “soluble”.

Question: For “MLETKDLNLFLGNKHVLKNISLSIPVRGEIIGIMGPNGAGKSSLIKSLIGEFNATGTKLLYNKPIQQQLQHITYIPQKAHIDLDFPISVEQVILSGCYKEIGWFRRPNKSARDKLKQLLSDLELESLRHRQISELSGGQLQRVLVARALMSESEVYFLDEPFVGIDFSSEKLIMTKIENLKQQGKLILIIHHDLSKAKQYFDRIILLNQTLRYFGDSEEAMSVTRLNETFMSSTDCSDPSQRSNITC”, which “soluble on expression in E. coli” value is on record?
Answer: Its value is “not soluble”.

Question: Which “soluble on expression in E. coli” value does the source give for “MKVKTQFVCNQCAAIFKQWAGQCTQCGAWNSIVEEGIMPENKTLRSGQWANQRSVITAVEDVVMDKIVRMDCGISELNRVLGGGLVYGSVVLIGGDPGIGKSTLLLQTLANLSMQETVLYVTGEESLQQVAMRAQRLGLPLAGLRLLAETQVESIIAQAQKEKPRIIVVDSVQTIFTEAISSAPGGVSQVRESAAQLVRYAKMTNTAIFLVGHVTKEGTLAGPRVLEHMVDSVLYFEGQNDSRFRVIRAIKNRFGAVNELGVFAMTDKGLKEVANPSAIFLSRQPEPTPGSAVMVTWEGSRPMLVEVQALVDEAHGQQAKRVTAGLEHNRLAILLAVLHRHGGIATYDQDVFINVVGGVKVTETASDLALLAAVISSLRNRIFDSETIIFGEVGLAGEIRPVQSGQERIKEAIKHGFKRAIVPFANAPKQQIDSMTVEPVKHLRDVLEKM” here?
Answer: Its value is “not soluble”.

Question: Which “soluble on expression in E. coli” value does the source give for “AIASTMVYPREERLEKLTQDEIISSTKLVIQGLEALKSEHNSILQSLLETIQCLKKDEEASLVHEKSSLLRKSVEMIELGLGEAQVMMALSNHLNAVESEKQKLRAQVRRLCQENQWLRDELANTQHKVQKSEQSVAQLEEEKKHLEFMNQLKKYDDGATPEVSPHNDMHRDVSLSVRQLKRLRESK” here?
Answer: Its value is “soluble”.

Question: With “VPMHPFVKALQEHFTAHQNPEKAEPMARYMKNHFLFLGIQTPERRQLLKDIIQIHTLPDQKDFQIIIRELWDLPEREFQAAALDIMQKYKKHINETHIPFLEELIVTKSWWDSVDSIVPTFLGDIFLKHPELISAYIPKWIASDNIWLQRAAILFQLKYKQKMDEELLFWIIGQLHSSKEFFIQKAIGWVLREYAKTNPDVVWEYVQNNELAPLSKREAIKHIKQNYGINNEKIGETLS” as the sequence, how does the “soluble on expression in E. coli” value read?
Answer: The value was “soluble”.

Question: With “MAKINLTPKKIYEQEFKTSIRGYDKTEVDEFLDDVIKDYTVYIALVKELQEENAKLKAKATSAPASRPAYASATSEPSHATTNIASASNYDILKRISRLEKEVFGKQIVE” as the sequence, how does the “soluble on expression in E. coli” value read?
Answer: Its value is “not soluble”.

Question: For “MAAFSVHILGCGSALPTTHHHPSSQVIDLRDKLYMIDCGEGVQRQFRHEKLHFGRLIHIFISHLHGDHCFGLPGFISTLGLLGRTGTLHVHGPEGIERFLSPILEQFCHRMPYQVEIHTIDASRHALVHEDKSVKVYSIPLSHRIPAVGYLFEEKCRARHLNKAAAEFYNIPLAEYPLIIEGSDYTTPDGRIIPNRHLTTPGTPPRRYAYCSDTEFCPSIVPIIQGVDLLYHEATFMEEDRARAKETFHSTAKEAAEIARQAGAKRLLIGHYSGRYKDVQGLLEEAQSVFKPTIAANERMRIDL”, which “soluble on expression in E. coli” value is on record?
Answer: Its value is “not soluble”.

Question: Which “soluble on expression in E. coli” value does the source give for “MKTALLLVDIQNDYFPNGKMELRNPVEASEYANQLLQHFRTNSEPILHIQHVAIKDDATFFLPNTEGVHIHESVRPLREETVIVKHYPNSFRETNLLEQLKRLNIEHVVVCGMMTHMCIDATVRAAFDFGFQCTVIHDACATKDLSFKNATIPAVYIHNTILASLNGVYANVISTQEFLAT” here?
Answer: Its value is “not soluble”.

Question: With “MKRTKKEFTPYNEYHDRPFELKWATAFALGELQEGIEASDEYSKRAFERLPQQTTEEIEEYLEQSLKNNQVLEIQLNTLDDFGRVQPPIVGVFEGMSSMEYVKVGHTHILFEEIRHIKSHEFTKWSSLD” as the sequence, how does the “soluble on expression in E. coli” value read?
Answer: The value was “not soluble”.

Question: With “METFILSSDSDDDSGPPPSKRRTIEGIPRSFSGDKKIRFSFGASNMSQDTTQEIIPEDTDTVPLTIPSTPALSGKFDSKTPKSVRRRSVSMSCFTPIVETINQPPTNQACSSFLQKEYNFHDLSSDEEGGDGGAGCSKDEDKIIEDNLNLRALLSPEKKKRKEKIEEVQNEFYGVYCLISRSDRPCYKNRCYIGYTVDPNRRIMQHNGGRDKGGAKKTDSRGPWDMVCVVHGFPNHVAALHFEWAWQNPLVSKSLKEKQLRKERKETPFAFQLRIACELMNSSAFCRFALTFRWLITTEELPFPTSCVPPDHTKLRFGKVKKEMSLVPSKREDYLEMGECRICGKDIEKLWSLVRCISATCPSHFHSKCLSENGLKLKNEHVDHVYPLKANCPTCGQFYLWGDIIREQRRIIKISTKCAEEFQNMVVRKELPHREISPISSKK” as the sequence, how does the “soluble on expression in E. coli” value read?
Answer: Its value is “not soluble”.

Question: With “MGSDKIHHHHHHMVKRMKLPESKNLSLYWEKYSFLLLEGSNSKDKEIVSKIFQTVEKLQSDFGKISSILKERREQLIKKRKPFINLKMRVKGKLLLGAGNPSSIEVGITLSRNYGLPIIPGTAVKGAFASFLFEFERDKYESLAHIFGDTEREGDLIFLDAIPVSDLKFSLDIVNPHFQPYYMKEKLPPNDWYDPVPIKYLVVSSGVFWFTVLESRSGVIGNSEKELIKQRFVEMLKAYGLGAKTSYGYGRFEEPS” as the sequence, how does the “soluble on expression in E. coli” value read?
Answer: Its value is “not soluble”.

Question: With “MAADVGQALAFLQQVKTTQGASIYEGLKAALAKVLEDRPVNAVEALETSVLSTPPAANLSVPLVPAASAAAAAAAVAKASLFGDPEPVLDPESGEPIDPDAPNEFECEDVEGDGDLLDGLGVGLGRQEMYAAMLAVKRLGEDAKRGVSTVRFFGKFFGTQADYYVFETTLQSNPDMPEAPEGTIPLEPYGEGVNAYIYFVSNTLGGPLQQLPYVTPEQIKASRLLRRYLTGRLDAPVSAFPAFPGNEANYLRALIARISAATVCCPRGFFTADDDSAELSANDEWVPLKGREMALPVNWSHRYAHLKGQGRTVTHKRDPPDEEEEPEKNFWTAEEMEAGPPPLATLDTDAPLPAATGDKVPPPAWSPVFASASVTTRNQVAGVRSNRWPGAVCACAGRHFTSMYVGWGIKAGGEWSPCPPPPPVPQWGAPAAGVEGGQQLLLECNDLPPKPAPPEEEDE” as the sequence, how does the “soluble on expression in E. coli” value read?
Answer: The value was “not soluble”.

— the DeepSol protein solubility set
